Assay [1] deals with membrane-bound full-length human HVEM on stable HVEM-transfected HEK293F cells (clone no. 128) (human) (UniProt Q92956). Kind of assay: flow cytometry, 1:20, HEK293F clone no. 128.
The target in assay [2] is membrane-bound human HVEM on Promega bioassay cells (NFκB-RE-luc human HVEM HEK293 reporter cells; CHO-K1 Activator cells) (human) (UniProt Q92956). Kind of assay: flow cytometry, 1:20, NFκB-RE-luc HVEM reporter cells. In general terms: A flow cytometer gives signals particle by particle.
The target is the same in assay [3]. As to the kind of experiment: cell-based or functional assay.
The target of assay [4] is T1, membrane-bound full-length human HVEM on stable HVEM-transfected HEK293F cells (clone no. 128) (human, UniProt Q92956 39-283).
T1 construct: The same cDNA was also expressed on Sf9 insect cells; also called TNFRSF14; CD270
T1 sequence: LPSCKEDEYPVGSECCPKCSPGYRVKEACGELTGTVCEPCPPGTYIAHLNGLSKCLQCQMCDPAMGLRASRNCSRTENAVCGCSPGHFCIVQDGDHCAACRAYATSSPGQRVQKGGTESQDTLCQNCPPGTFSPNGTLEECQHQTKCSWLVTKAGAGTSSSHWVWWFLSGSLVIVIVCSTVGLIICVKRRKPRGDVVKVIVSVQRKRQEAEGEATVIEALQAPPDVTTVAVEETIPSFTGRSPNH
Kind of assay: FACS, his-LIGHT pre-bound, then Ab 20 µg/mL. As for the experimental part: Generation of human ‘full-length’ HVEM-transfected HEK293F cells (clone no. 128) is described in Example 1a. Displacement of pre-bound soluble human BTLA, soluble human CD160, soluble human LIGHT, and soluble human TNFβ from surface human HVEM-transfected cells was analysed by FACS analysis. To this end, stable human full-length HVEM-transfected HEK293F cells were put at 10×10⁶ cells/mL in ice-chilled phosphate-buffered saline containing 0.1% BSA (Sigma)/0.05% NaN₃ (PBS/BSA/NaN₃) supplemented with 50 μg/mL human IgGs (blocking possible Fcγ receptors; Sigma) for 10 minutes at 4° C. Then, 10 μL/tube (i.e., 0.1×10⁶ cells) of these cells were incubated without or with 50 μL soluble biotinylated human BTLA-human Fcγ fusion protein (Sino Biological Inc) at 2 μg/mL/tube, with soluble his-tagged human CD160 (Sino Biological Inc) at 20 μg/mL/tube, with soluble his-tagged human LIGHT (Sino Biological Inc) at 2 μg/mL/tube, or with soluble biotinylated human TNFβ (Sino Biological Inc) at 0.2 μg/mL/tube in PBS/BSA/NaN₃ for 30 minutes at 4° C. After this (i.e., without washing), cells were subsequently incubated with 50 μL purified chimeric mouse/human anti-HVEM antibody at 20 μg/mL/tube or a human IgG4/κ (Sigma) negative isotype control at 20 μg/mL/tube for 30 minutes at 4° C. After extensive washing in PBS/BSA/NaN₃, cells were incubated with 1:200 diluted PE-conjugated streptavidin (detection BTLA and TNFβ; Jackson ImmunoResearch) or with biotinylated mouse anti-his antibody (detection CD160 and LIGHT; R&D Systems) at 10 μg/mL for 30 minutes at 4° C. […] Residual binding of ligands BTLA, CD160, LIGHT and TNFβ on membrane human HVEM was measured using a flow cytometer (model FACSCalibur; BD Biosciences).

Assay [5] concerns the target T1, membrane-bound full-length human HVEM …. Kind of assay: FACS titration on HVEM-HEK293F, half-maximum binding. As for the experimental part:
In order to determine the relative binding affinity of purified BTLA/HVEM blocking chimeric mouse/human anti-human HVEM antibodies no. 36H12, 45H6, 48H6, 11H7, and 49G4 for human HVEM, FACS analysis was used.
To this end, stable human full-length HVEM-transfected HEK293F cells (clone no. 128; see Example 1(a) above) were put at 10×10⁶ cells/mL in ice-chilled PBS containing 0.1% BSA (Sigma)/0.05% NaN₃ (PBS/BSA/NaN₃) supplemented with 50 μg/mL human IgGs (blocking possible Fcγ receptors; Sigma) for 10 minutes at 4° C. Then, 10 μL/tube (i.e., 0.1×10⁶ cells) of these cells were incubated with or without 100 μL titrated (in PBS/BSA/NaN₃) purified BTLA/HVEM blocking chimeric mouse/human anti-human HVEM antibody/tube for 30 minutes at 4° C. After extensive washing in PBS/BSA/NaN₃, cells were subsequently incubated with 1:200 diluted PE-conjugated goat anti-human IgG Fcγ-specific antibodies (Jackson ImmunoResearch) for 30 minutes at 4° C. After extensive washing in PBS/BSA/NaN₃, cells were fixed in 4% formaldehyde in PBS/BSA/NaN₃ for 30 minutes at 4° C. Binding (geo-mean fluorescence intensity) of chimeric mouse/human anti-human HVEM antibodies no. 36H12, 45H6, 48H6, 11H7, and 49G4 on membrane human HVEM was measured using a flow cytometer (FACSCalibur; BD Biosciences). For comparison, purified BTLA/HVEM blocking mouse anti-human HVEM antibody counterparts no. 36H12, 45H6, 48H6, 11H7, and 49G4 were run in parallel, and their binding was monitored as described in Example 2 (a).

The target is the same in assay [6]. As to the kind of experiment: FACS, biotinylated TNFβ pre-bound, then Ab 20 µg/mL. As for the experimental part:
(§1) Generation of human ‘full-length’ HVEM-transfected HEK293F cells (clone no. 128) is described in Example 1a. Displacement of pre-bound soluble human BTLA, soluble human CD160, soluble human LIGHT, and soluble human TNFβ from surface human HVEM-transfected cells was analysed by FACS analysis. To this end, stable human full-length HVEM-transfected HEK293F cells were put at 10×10⁶ cells/mL in ice-chilled phosphate-buffered saline containing 0.1% BSA (Sigma)/0.05% NaN₃ (PBS/BSA/NaN₃) supplemented with 50 μg/mL human IgGs (blocking possible Fcγ receptors; Sigma) for 10 minutes at 4° C. Then, 10 μL/tube (i.e., 0.1×10⁶ cells) of these cells were incubated without or with 50 μL soluble biotinylated human BTLA-human Fcγ fusion protein (Sino Biological Inc) at 2 μg/mL/tube, with soluble his-tagged human CD160 (Sino Biological Inc) at 20 μg/mL/tube, with soluble his-tagged human LIGHT (Sino Biological Inc) at 2 μg/mL/tube, or with soluble biotinylated human TNFβ (Sino Biological Inc) at 0.2 μg/mL/tube in PBS/BSA/NaN₃ for 30 minutes at 4° C. After this (i.e., without washing), cells were subsequently incubated with 50 μL purified chimeric mouse/human anti-HVEM antibody at 20 μg/mL/tube or a human IgG4/κ (Sigma) negative isotype control at 20 μg/mL/tube for 30 minutes at 4° C. […] After extensive washing in PBS/BSA/NaN₃, cells were incubated with 1:200 diluted PE-conjugated streptavidin (detection CD160 and LIGHT; Jackson ImmunoResearch) for 30 minutes at 4° C. After extensive washing in PBS/BSA/NaN₃, cells were fixed in 4% formaldehyde in PBS/BSA/NaN₃ for 30 minutes at 4° C. Residual binding of ligands BTLA, CD160, LIGHT and TNFβ on membrane human HVEM was measured using a flow cytometer (model FACSCalibur; BD Biosciences).

For assay [7] the target is unchanged. Kind of assay: FACS, biotinylated BTLA-Fc pre-bound, then Ab 20 µg/mL. The procedure:
as §1

For assay [8] the target is unchanged. As to the kind of experiment: FACS, Ab 10 µg/mL then biotinylated BTLA on HVEM-HEK293F. As for the experimental part:
(§2) Generation of human ‘full-length’ HVEM-transfected HEK293F cells (clone no. 128) is described in Example 1a. Binding of soluble human BTLA, of soluble human CD160, of soluble human LIGHT, and of soluble human TNFβ on surface human HVEM-transfected cells was analysed by FACS analysis. To this end, stable human full-length HVEM-transfected HEK293F cells were put at 10×10⁶ cells/mL in ice-chilled phosphate-buffered saline containing 0.1% BSA (Sigma)/0.05% NaN₃ (PBS/BSA/NaN₃) supplemented with 50 μg/mL human IgGs (blocking possible Fcγ receptors; Sigma) for 10 minutes at 4° C. Then, 10 μL/tube (i.e., 0.1×10⁶ cells) of these cells were incubated with or without 100 μL purified chimeric mouse/human anti-HVEM antibody at 10 μg/mL/tube or a human IgG4/κ (Sigma) negative isotype control at 10 μg/mL/tube for 30 minutes at 4° C. After this (i.e., without washing), cells were subsequently incubated with 1 μg/mL soluble biotinylated human BTLA (Sino Biological Inc), with 10 μg/mL soluble his-tagged human CD160 (Sino Biological Inc), with 1 μg/mL soluble his-tagged human LIGHT (Sino Biological Inc), or with 0.1 μg/mL soluble biotinylated human TNFβ (Sino Biological Inc) in PBS/BSA/NaN₃ for 30 minutes at 4° C. After extensive washing in PBS/BSA/NaN₃, cells were incubated with 1:200 diluted PE-conjugated streptavidin (detection BTLA and TNFβ; Jackson ImmunoResearch) or with biotinylated mouse anti-his antibody (detection CD160 and LIGHT; R&D Systems) at 10 μg/mL for 30 minutes at 4° C. After extensive washing in PBS/BSA/NaN₃, cells were incubated with 1:200 diluted PE-conjugated streptavidin (detection CD160 and LIGHT; Jackson ImmunoResearch) for 30 minutes at 4° C. After extensive washing in PBS/BSA/NaN₃, cells were fixed in 4% formaldehyde in PBS/BSA/NaN₃ for 30 minutes at 4° C. Binding of ligands BTLA, CD160, LIGHT and TNFβ on membrane human HVEM was measured using a flow cytometer (model FACSCalibur; BD Biosciences). For comparison, purified BTLA/HVEM blocking mouse anti-human HVEM antibody counterparts no. 36H12, 45H6, 48H6, 11H7, and 49G4 at 10 μg/mL/tube and a mouse IgG1 (BD Biosciences) negative isotype control at 10 μg/mL/tube were run in parallel.

The target is the same in assay [9]. Kind of assay: FACS, Ab 10 µg/mL then biotinylated TNFβ on HVEM-HEK293F. The procedure:
as §2

Numbering of substitutions follows the chain as printed. In names and notes the source's numbering stands. Some results are limits rather than exact numbers.

As a reminder, the EC50 is the concentration at which the effect is half-maximal.

On to “phycoerythrin (PE)-conjugated mouse anti-human HVEM antibody (clone eBioHVEM-122; eBioscience)”, for which the signal to noise ratio was 1000 in assay [1] and less than 5 in assay [2].

“soluble his-tagged human LIGHT (R&D Systems) (ligand)” gave an EC80 of LIGHT-induced NFκB-RE-luc activation in assay [3] of 0.3 µg/mL.

B1: chimeric mouse/human IgG4/kappa anti-human HVEM antibody no. 45H6 (antibody, V domains shown)
VH: DVQLVESGGGLVQPGGSRKLSCAASGFTFSSFGMHWVRQAPEKGLEWVAYISSGNSNIYYVDTVKGRFTISRDNPKNTLFLQMTSLRSEDTAMYYCARKRAYGDYSGFSMDYWGQGTSVTVSS
VL: DIVMTQSQKFMSTSVGDRVSVTCKASQNVDTNVAWYQQKPGQSPKALIYSASYRYSGVPDRFTGSGSGTDFTLTISNVQSEDLAEYFCQQYNKFPLTFGGGTKLEIKR
notes: 24/25 within the entry; Stabilized human IgG4 (S239P) already in the entry; also called chimeric 45H6
B1: the “% displacement of pre-bound ligand” value in [4] is less than 20%; in assay [6], greater than 90%; in assay [7], greater than 95%. This molecule showed an EC50 in [5] of 0.306 µg/mL. The “% blocking of ligand binding” value in [8] is greater than 95%; in [9], greater than 94%.

B2: chimeric mouse/human IgG4/kappa anti-human HVEM antibody no. 49G4 (antibody, V domains shown)
VH: EVQLQQSGAELVKPGASVKLSCRASGFNIKDTYMHWVKQRPEQGLEWIGRIDPARGNTKYDPKFQGKATITADTSSNTAYLQLSSLTSEDTAVYYCASAMDYWGQGTSVTVSS
VL: DVLMTQTPLSLPVSLGDQASISCRSSQSIVHSNGNTYLEWFLQKPGQSPKLLIYKVSNRFSGVPDRFSGSGSGTDFTLKISRVEAEDLGVYYCFQGSHVPLTFGAGTKLELKR
notes: 48/49 within the entry; Stabilized human IgG4 (S239P) already in the entry; also called chimeric 49G4
As to B2, the “% displacement of pre-bound ligand” value was less than 20% in assay [4], greater than 55% in [6] and greater than 95% in assay [7]. In [5], this molecule gave an EC50 of 0.312 µg/mL. Besides, the “% blocking of ligand binding” value in [8] is greater than 95%; in assay [9] it was greater than 80%.

B3: chimeric mouse/human IgG4/kappa anti-human HVEM antibody no. 36H12 (antibody, V domains shown)
VH: EVQLQQSGAGLVKPGASVKLSCTASGFNIKDTYMHWVRQRPEQGLEWIGRIDPATANTKYDPKFQGKATLTTDTSSNTAYLQLSSLTSEDTAVYYCVTYGYDVSWFAYWGLGALVTVSA
VL: B2 VL with N35I, F41Y
notes: 16/17 within the entry; Stabilized human IgG4 (S239P) already in the entry; also called chimeric 36H12
Regarding B3, the “% displacement of pre-bound ligand” value in [4] is less than 20%; in assay [6], greater than 90%; in assay [7], greater than 95%. Further, the response in assay [5] was half-maximal at 0.433 µg/mL (EC50). The “% blocking of ligand binding” value was greater than 95% in [8] and greater than 94% in [9].

For the origin of these results see US20230052646A1 (JJP BIOLOGICS SP Z O O, published 2023).
